From US6743893B2, “Receptor-mediated uptake of peptides that bind the human transferrin receptor” (The UAB Research Foundation, priority 2000, dated 2004)

Tests used:
[1] = target: T1, human transferrin receptor (hTfR) (Homo sapiens, UniProt P02786); test: Competition studies of phage binding to CEF+hTfR cells; details: competitor added prior to phage, 1 hour at 4° C.
T1 construct: expressed in transfected cells; host or cells: chicken embryo fibroblasts (CEF+hTfR), stably transduced with a retroviral vector
Description: Binding and Competition Studies: Purified phage populations were amplified and were verified to be homogenous through DNA sequencing. Cells were prepared for binding as was described for biopanning procedures. Preparations of plaque-purified and titered phage (1×10^11) were incubated in serum-free Opti-MEM on either CEF or CEF+hTfR cells at 4° C. for 1 hour. The cells were washed repeatedly with Opti-HEM and bound phage were eluted with low pH buffer and subsequently titered. In competition studies, holo-transferrin (Calbiochem, La Jolla, Calif.) or synthesized peptides were added to CEF+hTfR cells prior to addition of the phage for 1 hour at 4° C. Multiple trials were completed and average titers and standard deviations determined. The titers determined on CEF+hTfR cells were divided by the titers determined on CEF cells and multiplied by 100 to yield fold over control data points.
Due to a synthesis error, a peptide with the sequence HAIYPNH (Seq. ID No. 14) was also synthesized.

CEF+hTfR cells = test: Immunofluorescence binding and internalization on CEF+hTfR cells; type: cell-based, chicken; details: for endocytosis into CEF+hTfR cells (fluorescence after low pH buffer wash): 37° C., low pH buffer wash before fixation
Description: Immunofluorescence: CEF+hTfR cells were grown on glass coverslips to 50% to 75% confluence. The coverslips were washed and incubated in serum-free Opti-MEM media at 37° C. for 1 hour. […] Cells were washed with Opti-MEM, then fixed in 3% formaldehyde for 30 minutes at 4° C. Alternatively, the cells were acid-washed with 0.2 M glycine-HCl, Ph 2.2, prior to fixation. A GFP monoclonal antibody (Clontech) was used in conjunction with an Oregon-Green Goat Anti-Mouse (Molecular Probes) to augment GFP fluorescence. All slides were counterstained with DAPI (2(4Amidinophenyl)-6indole carbamidinedihydrochioride) (Sigma). The microscopic slides were mounted in Prolong™ antifade medium (Molecular Probes). Images were captured on an AX70 microscope with Olympus Camera (Olympus, Melville, N.Y.) and analyzed with ESPRIT software (Life Science Resources, Cambridge, England). Final figures were assembled using Microsoft Power Point (Microsoft Corp., Redmond, Wash.).
To evaluate the sufficiency of capacity of the peptides to mediate uptake of carrier protein, GFP fusion proteins were prepared. Immunofluorescence was used to determine if the GFP-peptides fusion constructs were internalized using the following assay. GFP-peptide constructs were cloned with a C-terminal peptide addition of either HAIYPRH (Seq. ID No. 1) (GFP-HAIYPRH) or […] (Seq. ID No. 2) (GFP-[…]). These constructs were expressed and purified to greater than 95% by Coomassie staining. Purified proteins were applied to CEF+hTfR cells at 4° C. (which prevents endocytosis) or at 37° C. […] This acid wash determined whether the protein was endocytosed by removing proteins bound at the cell surface. […]
Immunofluorescence images of the localization of various proteins applied to CEF+hTfR cells at either 4° C. or 37° were studied. […] The total fluorescence shown could result from both cell surface and endocytosed proteins.
The cells that had undergone a low pH buffer wash to enable identification of proteins that had been endocytosed were evaluated.

CEF cells = test: Immunofluorescence binding assays on CEF cells; type: cell-based, chicken; details: 4° C. or 37° C., CEF cells lack the hTfR
[2] = target: T1, human transferrin receptor (hTfR); test: Scatchard analysis of 125I-labelled protein binding to CEF+hTfR cells; details: CEF+hTfR cells on ice, 1 hour, read-out: binding affinity (Scatchard)
Description: 1M NaOH was added to lyse the cells for determining the bound fraction. Both unbound and bound fractions were counted in a gamma counter and binding affinities were determined using Scatchard analysis.
Serial dilutions of labelled proteins were incubated with CEF+hTfR cells on ice in PBS-0.1% BSA in duplicate wells. After 1 hour, the unbound fraction was removed and cells were washed four times. Cells were removed from the well with 1N NaOH. The unbound and bound fractions were counted in a gamma counter and fmoles of bound and unbound were calculated. Scatchard plots were derived by plotting bound versus bound/free of an average value generated by the duplicate wells. A best of fit line was generated using the Excel program (Microsoft Corp.) and the binding affinities were determined by the slope of the plotted lines.

T1 sequence (P02786 whole entry): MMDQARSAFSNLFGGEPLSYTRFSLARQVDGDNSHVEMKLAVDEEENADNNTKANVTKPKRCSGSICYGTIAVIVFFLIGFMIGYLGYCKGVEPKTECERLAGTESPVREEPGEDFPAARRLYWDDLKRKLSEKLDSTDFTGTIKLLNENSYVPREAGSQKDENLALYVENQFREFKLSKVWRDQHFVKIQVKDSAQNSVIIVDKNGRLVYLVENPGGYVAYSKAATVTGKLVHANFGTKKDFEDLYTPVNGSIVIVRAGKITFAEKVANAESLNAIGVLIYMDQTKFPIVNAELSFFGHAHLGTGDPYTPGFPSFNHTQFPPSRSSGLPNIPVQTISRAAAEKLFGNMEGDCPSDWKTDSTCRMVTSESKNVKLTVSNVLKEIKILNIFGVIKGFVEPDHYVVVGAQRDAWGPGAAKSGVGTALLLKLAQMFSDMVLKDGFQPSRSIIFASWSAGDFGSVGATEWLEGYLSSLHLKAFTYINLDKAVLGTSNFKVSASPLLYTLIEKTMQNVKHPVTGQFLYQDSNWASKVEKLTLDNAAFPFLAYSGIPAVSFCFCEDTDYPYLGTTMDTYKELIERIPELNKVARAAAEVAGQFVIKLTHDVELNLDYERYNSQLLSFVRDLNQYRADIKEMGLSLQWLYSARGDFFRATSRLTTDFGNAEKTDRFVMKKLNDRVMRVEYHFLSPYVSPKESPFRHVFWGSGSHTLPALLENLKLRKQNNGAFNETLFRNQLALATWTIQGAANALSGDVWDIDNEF

Substance: HAIYPNH [peptide synthesized due to a synthesis error, asparagine in place of arginine]
- competition of HAIYPRH phage binding to CEF+hTfR cells by added peptide or Tf [1]: no effect

Substance: HAIYPRH
- competition of HAIYPRH phage binding to CEF+hTfR cells by added peptide or Tf [1]: competed away to background levels
- competition of THRPPMWSPVWP phage binding to CEF+hTfR cells by added peptide or Tf [1]: failed to significantly compete

Substance: PWRPSHPVWMPT
- competition of THRPPMWSPVWP phage binding to CEF+hTfR cells by added peptide or Tf [1]: not by the scrambled 12-mer sequence

Substance: THRPPMWSPVWP
- competition of HAIYPRH phage binding to CEF+hTfR cells by added peptide or Tf [1]: failed to significantly compete

Substance: Texas-Red Tf: Tf conjugated to the Texas-Red fluorochrome, positive control
- endocytosis into CEF+hTfR cells (fluorescence after low pH buffer wash) (CEF+hTfR cells): readily endocytosed

Substance: Tf: transferrin from human serum, native ligand of hTfR
- binding or internalization on CEF cells (CEF cells): neither of the GFP fusion proteins or transferrin bound or internalized

Substance: wtGFP: purified wild-type green fluorescent protein, negative control
- Kd [2]: 240 µM
- localization/binding of protein on CEF+hTfR cells without acid wash (CEF+hTfR cells; 37° C. for one hour, no acid wash): minimal binding
- endocytosis into CEF+hTfR cells (fluorescence after low pH buffer wash) (CEF+hTfR cells): unable to be endocytosed
